± gives the half width of the 95% confidence interval.

The nature of series [1]: folding stability dG unfold from trypsin proteolysis; higher = more stable. In outline:
(§1)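 Mini-proteins designed to be under 80 residues and free of cysteine were carried in a PA-tagged cDNA display construct and digested with trypsin and with chymotrypsin. Each protease was applied at 11 threefold-diluted concentrations, alongside a no-protease condition, before sequencing. K50 came from Bayesian fitting of the sequencing counts, and unfolding free energy was obtained by comparing it with a sequence-predicted unfolded-state K50 and a shared folded-state K50, for each protease separately or for both together. Designs were retained only if their AlphaFold2 dimer inter-PAE exceeded 15.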

Series [2] in a line: folding stability dG unfold from chymotrypsin proteolysis; higher = more stable. The gist of the method: as §1
A short description of series [3]: folding stability dG unfold (combined trypsin and chymotrypsin); higher = more stable. The gist of the method:
as §1

Turning to “SAGGKTIEVWFLFPPGMPPEEVASTIAKLLPPGFKIDVEILEVQPDPGGEDYIIFKATIYYPDDGQPISAGG [r13_12_TrROS]”, the “folding stability dG unfold” value in series [1] was found to be 3.34 ± 0.15 kcal/mol; in series [2], 4.68 ± 0.16 kcal/mol; in series [3], 4.26 ± 0.25 kcal/mol.
In the same order, the values of “SAGGKTIPIWFRVPPGMTPEEAADELADEIANELQQQNGKEIEIKIDDVEPNPNGWNIVRIKIEVDPSAGGS [r8_156_TrROS]” are 0.176 ± 0.3 kcal/mol, 0.433 ± 0.43 kcal/mol and 0.26 ± 0.32 kcal/mol.
In the same order, the values of “SAGGKTIYFPISEARNFLKEAIDNGLDNIRIEVFNGDKPREIDIPPGNLDDLIDNIPPNSWVQIEPKSAGGS [r16_636_TrROS]” are -0.645 ± 0.095 kcal/mol, 0.536 ± 0.089 kcal/mol and 0.221 ± 0.072 kcal/mol.
Regarding “SAGGKTLVITVEAPPEDWDKILELAREALELGGDVVVVAPFPDGLTVTVRAEKPLGKIVEVTVAPDDASAGG [r13_873_TrMRF]”, the “folding stability dG unfold” value in series [1] came to 0.578 ± 0.053 kcal/mol; in series [2] it was 1.5 ± 0.071 kcal/mol; in series [3] it was 1.15 ± 0.095 kcal/mol.
For “SAGGKTVTTPEQILELIKENPGKTYTITITVPKENQKKVEELKKALEEAGLTVEENENGTLTVTIKPSAGGS [r16_335_TrROS_Hall]”, the “folding stability dG unfold” value in series [1] was determined as 2.2 ± 0.17 kcal/mol; in series [2], 3.89 ± 0.14 kcal/mol; in series [3], 3.42 ± 0.28 kcal/mol.
The like results for “SAGGKVFTPEHLEELLKNVPADDPNATLTVTVEVPVVVLPTTDGDDNPLPAAAAPATVTLPITVLPASAGGS [r16_708_TrMRF]” were, in that order, 0.0702 ± 0.072 kcal/mol, 1.2 ± 0.018 kcal/mol and 0.837 ± 0.07 kcal/mol.
The like results for “SAGGKVKIVKIEIEEVDGKLKIRIVVEVDTPEDLEALKKAGVKKLKVEKRRLPNGRLLVVIEVEVEVKSAGG [r13_506_TrROS_Hall]” were, in that order, 2.46 ± 0.077 kcal/mol, 3.86 ± 0.074 kcal/mol and 3.42 ± 0.062 kcal/mol.
In the same order, the values of “SAGGKVKVVEIRYFPGTNTVEILVEDPGPYLATIRIPAAPDAPIEIDEDANFRVPDAPVVLGEVRPPSAGGS [r16_515_TrMRF]” are 1.19 ± 0.027 kcal/mol, 0.843 ± 0.12 kcal/mol and 1.09 ± 0.072 kcal/mol.
With “SAGGKVVVVPFPGPVTPETVAALAAKFIEEGLYDVPLVVVSEVEGRRPDGRPGRRRFGFVYVAKAPKSAGGS [r16_44_TrMRF]”, the entries for the “folding stability dG unfold” value in series [1], in series [2] and in series [3] were 1.23 ± 0.051 kcal/mol, 1.98 ± 0.13 kcal/mol and 1.59 ± 0.1 kcal/mol, respectively.
In the same order, the values of “SAGGKVYRLPDGTRVLEVEVDGELYRLVVRRPDGEELVLEFESREEALEAAKALAEAGWEIVAVERVPSAGG [r13_727_TrROS_Hall]” are 0.787 ± 0.038 kcal/mol, 0.807 ± 0.062 kcal/mol and 0.86 ± 0.06 kcal/mol.
The like results for “SAGGKVYYIEIPPELLEAFPDLVVEPVEQPEDFVVAPVFLSDKVLLVPIRVFSEDGKELFDFTLTSNPSAGG [r13_129_TrMRF]” were, in that order, 1.18 ± 0.027 kcal/mol, 1.77 ± 0.024 kcal/mol and 1.62 ± 0.037 kcal/mol.
In the same order, the values of “SAGGKYEYDPDNGYYRDEDGKMYYPMPPQIPPIEIPIPINLPNGQKLNIPVEFRTIEDALDALKKFFSAGGS [r8_440_TrROS]” are 0.697 ± 0.033 kcal/mol, 1.13 ± 0.091 kcal/mol and 1.01 ± 0.14 kcal/mol.
In the case of “SAGGKYKIVEITIKVEPGQSPEEIAAEIAKKLAPPGEKVKVKVEKKDGYLRIYIINEETGEVVEEFELSAGG [r13_724_TrROS_Hall]”, the results for the “folding stability dG unfold” value in series [1], in series [2] and in series [3] were 1.66 ± 0.051 kcal/mol, 1.91 ± 0.06 kcal/mol and 1.88 ± 0.14 kcal/mol, respectively.
Regarding “SAGGLAPVYKTEDGVYLITPYNPETGELLETIPISEEDIEELSKEYGRDLTIEEIVKKLGYETEITVASAGG [r13_836_TrMRF]”, the “folding stability dG unfold” value in series [1] came out at 0.786 ± 0.057 kcal/mol; in series [2], 0.99 ± 0.03 kcal/mol; in series [3] it was 0.969 ± 0.06 kcal/mol.
In the same order, the values of “SAGGLDPDGKIRWQPITITIEIPIPPGDEELANKIADWLRDLGIEVEIKRNPNGYIQITVEFWVLVIDSAGG [r13_702_TrROS]” are 3.82 ± 0.33 kcal/mol, 5.03 ± 0.29 kcal/mol and 4.89 ± 0.31 kcal/mol.
Take “SAGGLEILEVDPDTYTITIRFGDRPLEFTVPPDYPPTITITEDPDGSVTLTIEVPDRTETFTIPRELVESAG [r5_500_TrMRF]”: the “folding stability dG unfold” value in series [1] stood at 1.18 ± 0.021 kcal/mol; in series [2] it was 1.84 ± 0.09 kcal/mol; in series [3], 1.61 ± 0.083 kcal/mol.
In the same order, the values of “SAGGLIIPEEYEIVEKKAEILPDGSLRYTFILRPKSGELLLVEIRYPPDGSIEIEARRLTPEELKKALSAGG [r13_773_TrMRF]” are 3.13 ± 0.076 kcal/mol, 3.71 ± 0.045 kcal/mol and 3.56 ± 0.074 kcal/mol.
In the same order, the values of “SAGGLKDILKELGFPIKSVTVQPMPMPNGMPMRTVSITFENPNGPKFEIEVMVMPNGEVMIDIEWVKPSAGG [r13_818_TrROS]” are 2.23 ± 0.092 kcal/mol, 2.69 ± 0.11 kcal/mol and 2.48 ± 0.22 kcal/mol.

Values taken from the supplement of paper PMC12764529.
